Reference: patent publication US20160304565A1 (US Dept. of Health and Human Services, published 2016)

Molecular target: the molecule itself
Test: gel filtration chromatography (self-association)

B1: E. coli-produced, properly folded RSV G0-dTM (67-298) protein of the RSV-A2 strain, C-terminal His6 tag (other)
chain: HKVTPTTAIIQDATSQIKNTTPTYLTQNPQLGISPSNPSEITSQITTILASTTPGVKSTLQSTTVKTKNTTTTQTQPSKPTTKQRQNKPPSKPNNDFHFEVFNFVPCSICSNNPTCWAICKRIPNKKPGKKTTTKPTKKPTLKTTKKDPKPQTTKSKEVPTTKPTEEPTINTTKTNIITTLLTSNTTGNPELTSQMETFHSTSSEGNPSPSQVSTTSEYPSQPSSPPNTPRQHHHHHH
notes: also called REG; bacterially produced RSV-A2 G
binding result: binds
